Assay results taken from patent US20090170069, “Cell free methods for detecting protein-ligand binding” (The Arizona Board of Regents on behalf of the University of …, published 2009).

Tests used:
[1] = molecular target: CFluc-E2C (six-finger zinc finger E2C) (synthetic); experiment: with Pum2-Aart hairpin-guide and 1 nM target ssRNA or ssDNA; G to T target mutation gives background; settings: tags: N-terminal CFluc(398-550) split luciferase fragment; hairpin with ssDNA guide tail
[2] = molecular target: CFluc-E2C (six-finger zinc finger E2C) (synthetic); experiment: with VEGF81-99-Aart hairpin-guide and 1 nM VEGF transcript; settings: tags: N-terminal CFluc(398-550) split luciferase fragment; hairpin with ssDNA guide tail
[3] = molecular target: Aart-NFluc (six-finger zinc finger Aart) (synthetic); experiment: competition; competes with E2C-1-Aart in split-luciferase assay with CFluc-E2C; IC50 only in figure; reference hairpin; settings: tags: N-terminal His tag, C-terminal NFluc(2-416) split luciferase fragment
Chain of Aart-NFluc (six-finger zinc finger Aart) (synthetic) (chain, as listed by the source): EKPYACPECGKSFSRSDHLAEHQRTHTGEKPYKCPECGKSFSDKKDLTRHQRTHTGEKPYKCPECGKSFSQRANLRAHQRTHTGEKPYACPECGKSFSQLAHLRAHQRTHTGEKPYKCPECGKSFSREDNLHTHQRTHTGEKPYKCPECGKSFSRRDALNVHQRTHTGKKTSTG

[4] = molecular target: Aart-NFluc (six-finger zinc finger Aart) (synthetic); experiment: competition; single A to T bp substitution in finger 3 triplet; settings: tags: N-terminal His tag, C-terminal NFluc(2-416) split luciferase fragment; hairpin
[5] = molecular target: Aart-NFluc (six-finger zinc finger Aart) (synthetic); experiment: with E2C-HER2 100-118 hairpin-guide and 1 nM HER2 transcript; settings: tags: N-terminal His tag, C-terminal NFluc(2-416) split luciferase fragment; hairpin with ssDNA guide tail
[6] = molecular target: CFluc-E2C (six-finger zinc finger E2C) (synthetic); experiment: with HER2 122-140-Aart hairpin-guide and 1 nM HER2 transcript; settings: tags: N-terminal CFluc(398-550) split luciferase fragment; hairpin with ssDNA guide tail
[7] = molecular target: Aart-NFluc (six-finger zinc finger Aart) (synthetic); experiment: with VEGF60-78-E2C hairpin-guide and 1 nM VEGF transcript; settings: tags: N-terminal His tag, C-terminal NFluc(2-416) split luciferase fragment; hairpin with ssDNA guide tail
[8] = molecular target: Aart-NFluc (six-finger zinc finger Aart) (synthetic); experiment: with Pum1-E2C hairpin-guide and 1 nM target ssRNA or ssDNA; G to T target mutation gives background; settings: tags: N-terminal His tag, C-terminal NFluc(2-416) split luciferase fragment; hairpin with ssDNA guide tail

Chain of CFluc-E2C (six-finger zinc finger E2C) (synthetic) (chain, as listed by the source): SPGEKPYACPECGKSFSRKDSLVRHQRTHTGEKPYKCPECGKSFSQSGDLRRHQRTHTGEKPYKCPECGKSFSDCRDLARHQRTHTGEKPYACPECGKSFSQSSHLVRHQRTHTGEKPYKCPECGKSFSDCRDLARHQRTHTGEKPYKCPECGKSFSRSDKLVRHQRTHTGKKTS

B1: Pum1-E2C hairpin-guide (dsDNA)
DNA: GAGGGGCCGGAGCCGCAGTGCGTCCTCGCACTGCGGCTCCGGCCCCTCAAAACTATATACACCATG
activity [1]: 4.5 fold luminescence over background

B2: VEGF60-78-E2C hairpin-guide (dsDNA)
DNA: GAGGGGCCGGAGCCGCAGTGCGTCCTCGCACTGCGGCTCCGGCCCCTCAAAAGAAGATGTCCACCAGGGTC
activity [2]: 39 fold luminescence

B3: Aart competitor hairpin, consensus (dsDNA)
DNA: GCATGTAGGGAAAAGCCCGGCGTCCTCGCCGGGCTTTTCCCTACATGC
binding result [3]: binds

B4: Aart competitor hairpin, consensus ATA (dsDNA)
DNA: GCATGTAGGGAATAGCCCGGCGTCCTCGCCGGGCTATTCCCTACATGC
binding signal [4]: 60 fold reduced vs consensus hairpin

B5: HER2 122-140-Aart hairpin-guide (dsDNA)
DNA: CCCTTGCAGCGGGCACAGCAAAACTCCGGGCTTTTCCCTACATGCTCCTGCATGTAGGGAAAAGCCCGGAG
activity [5]: 4.3 fold luminescence over hairpin-guides alone

B6: E2C-HER2 100-118 hairpin-guide (dsDNA)
DNA: GAGGGGCCGGAGCCGCAGTGCGTCCTCGCACTGCGGCTCCGGCCCCTCAAAACGGCACAGACAGTGCGCGT
activity [6]: 4.3 fold luminescence over hairpin-guides alone

B7: VEGF81-99-Aart hairpin-guide (dsDNA)
DNA: GATCTCATCAGGGTACTCCAAAACTCCGGGCTTTTCCCTACATGCTCCTGCATGTAGGGAAAAGCCCGGAG
activity [7]: 39 fold luminescence

B8: Pum2-Aart hairpin-guide (dsDNA)
DNA: GCCGCTATATCAAAAAACTCCGGGCTTTTCCCTACATGCTCCTGCATGTAGGGAAAAGCCCGGAG
activity [8]: 4.5 fold luminescence over background

B9: Aart competitor hairpin, designed ATA (dsDNA)
DNA: GCATGTAGAGAATAACCAGGCGTCCTCGCCTGGTTATTCTCTACATGC
binding signal [4]: 20 fold reduced vs designed hairpin
